Experimental findings from patent US20060140967A1 (US Dept. of Health and Human Services, published 2006) are described below.

B1: TARP-2-9 (peptide)
peptide: QMFPPSPL
notes: The limits should be checked against the listing

For one assay, the target named is T1, HLA-A2.1 molecules on TAP-deficient T2 cells (human).
T1 construct: MHC class I molecule on T2 cells; also called HLA-A2 molecules
In words: T2 binding assay, flow cytometry.
Experimental: (§1) T2-binding assay. […] After washing, cells were stained with FITC-labeled goat anti-mouse Ig (PharMingen, San Diego, Calif.) and the level of HLA-A2.1 expression was measured by flow cytometry. HLA-A2.1 expression was quantified as fluorescence index (FI) according to the formula: FI=(mean fluorescence intensity with peptide-mean fluorescence intensity without peptide)/mean fluorescence intensity without peptide.
As for FLRNFSLML (also called wild-type peptide) [TARP-29-37], the binding result was “binds”. Still for that read-out and setting: then FLRNFSLMV [TARP-29-37-9V], with “binds”; and FLANFSLML [TARP-29-37-3A], with “binds”.

For the molecule FLFLRNFSL [TARP-27-35-2L], the binding result was “binds”. Regarding FVFLRNFSV [TARP-27-35-9V], the binding result is reported as “binds”.

For a further assay, the target named is T1, HLA-A2.1 molecules on TAP-deficient T2 …. In words: T2 binding assay, flow cytometry with anti-HLA-A2.1. (In general: A flow cytometer gives signals particle by particle.)
Experimental: as §1
(§2) To determine HLA-A2.1 epitopes from the TARP, four different wild-type peptides were first predicted based on the anchor residues (FIG. 1B) and their binding affinities to HLA-A2.1 molecules were measured by the T2-binding assay.
Regarding B1, the binding result is listed as “no binding”. The same measure, in the same setting: with RLEHTFVFL [TARP-22-30] the entry was “no binding”. Same read-out and setting: with FVALRNFSL [TARP-27-35 with substitution with Ala at position 3] the entry was “no binding”.

For the next assay the target is unchanged. In words: T2 binding assay, flow cytometry; reference TARP-29-37.
Experimental: as §1, §2
FVFLRNFSL [TARP-27-35]: the “fold higher binding affinity than TARP-29-37” value was approximately 10 fold.
